Assay results: US20210380960

How the values were obtained:
[1] = biological target: T1, Peptide 1: enriched in negatively charged residues
T1 chain: EEDEKRRKYTSWNSE

[2] = biological target: T2, Peptide 5: enriched with aromatic residues
T2 chain: YFLMNENRYTSWNSE

[3] = biological target: T3, Peptide 7 (random peptide)
T3 chain: GISEQFKTNVLREYA

[4] = biological target: T4, Peptide 4: enriched in glycines
T4 chain: GGGGNENRYTSWNSE

[5] = biological target: T5, Peptide 2: enriched in hydrophobic residues
T5 chain: LMLLNENRYTSWNSE

B1: PhTET1 (protein)
chain: MMSMIEKLKKFTQIPGISGYEERIREEIIREIKDFADYKVDAIGNLIVELGEGEERILFMAHMDEIGLLITGITDEGKLRFRKVGGIDDRLLYGRHVNVVTEKGILDGVIGATPPHLSLERDKSVIPWYDLVIDIGAESKEEALELVKPLDFAVFKKHFSVLNGKYVSTRGLDDRFGVVALIEAIKDLVDHELEGKVIFAFTVQEEVGLKGAKFLANHYYPQYAFAIDSFACCSPLTGDVKLGKGPVIRAVDNSAIYSRDLARKVWSIAEKNGIEIQIGVTGGGTDASAFQDRSKTLALSVPIKYLHSEVETLHLNDLEKLVKLIEALAFEL
hydrolysis of the peptide, RP-HPLC after 15 min [1]: no hydrolysis activity is observed

B2: PhTET3 (protein)
chain: MDLKGGESMVDWKLMQEIIEAPGVSGYEHLGIRDIVVDVLKEVADEVKVDKLGNVIAHFKGSSPRIMVAAHMDKIGVMVNHIDKDGYLHIVPIGGVLPETLVAQRIRFFTEKGERYGVVGVLPPHLRRGQEDKGSKIDWDQIVVDVGASSKEEAEEMGFRVGTVGEFAPNFTRLNEHRFATPYLDDRICLYAMIEAARQLGDHEADIYIVGSVQEEVGLRGARVASYAINPEVGIAMDVTFAKQPHDKGKIVPELGKGPVMDVGPNINPKLRAFADEVAKKYEIPLQVEPSPRPTGTDANVMQINKEGVATAVLSIPIRYMHSQVELADARDVDNTIKLAKALLEELKPMDFTP
hydrolysis of the peptide, RP-HPLC after 15 min (PhTET3 alone, 5% experiment) [2]: there is a strong accumulation of the peptide pep-1 after the 15 minutes of incubation of the aminopeptidase with the substrate peptide
hydrolysis of the peptide, RP-HPLC after 15 min at 40° C. [2]: a significant decrease in hydrolysis is observed. In fact, in this case, only the peptide pep-1 is visible and in very small quantity
hydrolysis of the peptide, RP-HPLC after 15 min at 60° C. [2]: there is an accumulation of the peptide pep-1 while the intact substrate peptide is no longer present in the medium
hydrolysis of the peptide, RP-HPLC and mass spectrometry [2]: significant accumulation of peptides whose tyrosine at the N-terminal end has been hydrolyzed
hydrolysis of peptide 7 incorporated into a casein hydrolyzate, RP-HPLC [3]: the peptide of interest is not very hydrolyzed

B3: PhTET4 (protein)
chain: MERIVKILREILEIPSPTGYTKEVMSYLEKFLKENEVNFYYTNKGALIAGNHPKPELVVIAHVDTLGAMVKEILPDGHLAFSRIGGLVLPTFEGEYCTIITRKGKKFRGTLLLRNPSAHVNREVGKKERKEENMYIRLDELVEKREDTEKLGIRPGDFIAFDPKFEYVNGFVKSHFLDDKASVAAILDLIIDMKDELEKYPVAFFFSPYEEVGHGGSAGYPPTTKELLVVDMGVVGEGVSGKETAVSIAAKDTTGPYDYDMTNRLIELAEENNIPYVVDVFPYYGSDGSAALRAGWDFRVALIGPGVHASHGMERTHVKGLLATKELIRAYIKWKG
hydrolysis of the peptide, RP-HPLC after 15 min [4]: no hydrolysis activity is observed
hydrolysis of peptide 7 incorporated into a casein hydrolyzate, RP-HPLC [3]: only the peptide of interest is hydrolysed by the aminopeptidase PhTET4 and, this, almost completely
kinetics of hydrolysis of the peptide, RP-HPLC after 5, 15 and 30 min [3]: only the hydrolysis of the first glycine residue was observed

B4: PhTET2 (protein)
chain: MEVRNMVDYELLKKVVEAPGVSGYEFLGIRDVVIEEIKDYVDEVKVDKLGNVIAHKKGEGPKVMIAAHMDQIGLMVTHIEKNGFLRVAPIGGVDPKTLIAQRFKVWIDKGKFIYGVGASVPPHIQKPEDRKKAPDWDQIFIDIGAESKEEAEDMGVKIGTVITWDGRLERLGKHRFVSIAFDDRIAVYTILEVAKQLKDAKADVYFVATVQEEVGLRGARTSAFGIEPDYGFAIDVTIAADIPGTPEHKQVTHLGKGTAIKIMDRSVICHPTIVRWLEELAKKHEIPYQLEILLGGGTDAGAIHLTKAGVPTGALSVPARYIHSNTEVVDERDVDATVELMTKALENIHELKI
hydrolysis of the peptide, RP-HPLC after 15 min [5]: the first residues of the peptide were hydrolyzed more quickly in the presence of PhTET3 than in the presence of PhTET2

B5: MjTET (protein)
chain: MSVVEYLKKLSKLHGISGREDSVREFMKKELEKYCDSVEIDNFGNLIAKRGNKGKKIMIAAHMDEIGLMVKYIDDNGFLKFTKIGGIYDPTILNQKVVVHGSKGDLIGVLGSKPPHRMKEEEKTKIIKYEDMFIDIGAESREEAIEMGVNIGTWVSFLSEVYDLGKNRLTGKAFDDRVGCAVLLEVMKRLSEEDIDCQVYAVGTVQEEVGLKGARVSAFKINPDVAIALDVTIAGDHPGIKKEDAPVDLGKGPVVGIVDASGRGLIAHPKVLDMIKAVSEKYKIDVQWEVGEGGTTDATAIHLTREGIPTGVISVPARYIHTPVEVIDKRDLEKTVELVYNCIKEVNNFF
hydrolysis of the peptide, RP-HPLC after 15 min at 40° C. [2]: all the intermediate peptides are visible as well as the final product pep-4, and there is only a significant slowdown in hydrolysis
hydrolysis of the peptide, RP-HPLC after 15 min at 60° C. [2]: part of the intact peptide is still present in the reaction medium, while the residues of the hydrolysis products are present in almost equivalent amounts. There is a slight accumulation of the final hydrolysis product, the peptide pep-4
hydrolysis of peptide 7 incorporated into a casein hydrolyzate, RP-HPLC [3]: the peptide of interest is not very hydrolyzed
kinetics of hydrolysis of the peptide, RP-HPLC after 5, 15 and 30 min [3]: we observe, in addition to the peptide pep-1, the peptides pep-2 and pep-3, and what corresponds to pep-4 ... between 15 and 30 min, the concentration of the substrate peptide pep-0 does not seem to have decreased
